# Test results taken from US20260217814 (published 2026).
# T1: cynomolgus serum albumin (cynomolgus)
# T1 chain: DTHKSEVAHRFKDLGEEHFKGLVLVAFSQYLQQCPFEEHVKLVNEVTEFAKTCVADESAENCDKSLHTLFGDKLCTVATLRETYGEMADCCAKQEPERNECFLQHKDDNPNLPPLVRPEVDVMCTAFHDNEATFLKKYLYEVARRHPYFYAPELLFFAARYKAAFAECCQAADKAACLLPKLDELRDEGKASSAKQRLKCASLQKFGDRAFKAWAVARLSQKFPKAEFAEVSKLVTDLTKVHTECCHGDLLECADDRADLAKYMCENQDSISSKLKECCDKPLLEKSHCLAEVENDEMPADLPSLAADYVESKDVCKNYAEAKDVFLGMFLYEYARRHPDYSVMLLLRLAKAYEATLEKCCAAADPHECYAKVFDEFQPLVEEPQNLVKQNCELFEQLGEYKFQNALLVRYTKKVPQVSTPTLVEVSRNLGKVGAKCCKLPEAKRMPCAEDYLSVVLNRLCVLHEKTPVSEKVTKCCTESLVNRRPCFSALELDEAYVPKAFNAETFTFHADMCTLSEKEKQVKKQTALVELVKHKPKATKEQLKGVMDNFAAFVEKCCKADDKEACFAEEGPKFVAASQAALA
# Columns and labels:
# [1] = biological target: T1, cynomolgus serum albumin; assay: SPR, pH 5.5
# [2] = biological target: T2, human serum albumin (human, UniProt P02768); assay: SPR, pH 7.4
# [3] = biological target: T1, cynomolgus serum albumin; assay: SPR, pH 7.4
# [4] = biological target: T2, human serum albumin; assay: SPR, pH 5.5
binder,measurement,setting,value
A5 HSA arm (antibody) chain 1: EVQLVESGGGLVQPGGSLRLSCAASGIDFSTYGISWVRQAPGKGLEWIAYIYPDYGITDYASWVNGRFTISLDNAQNTVYLQMNSLRAEDTAVYYCARSGSYYSRGWGAHYFNLWGQGTLVTVSSASTKGPSVFPLAPSSKSTSGGTAALGCLVKDYFPEPVTVSWNSGALTSGVHTFPAVLQSSGLYSLSSVVTVPSSSLGTQTYICNVNHKPSNTKVDKKVEPKSCGGGGSGGGGSDIQMTQSPSSLSASVGDRVTITCQASQTINYWLAWYQQKPGKAPKLLIYRASTLASGVPSRFSGSGSGTDFTLTISSLQPEDFATYYCQNYYYSTSRSYGFGGGTKLTVLGGGGGSGGGGSGGGGSGGGGSEVQLVESGGGLVQPGGSLRLSCAASGFSFSSDYWMCWVRQAPGKGLEWIGCIYAGDVDDTDYASWARGRFTISRDNSKNTVYLQMNSLRAEDTAVYYCARVDGFDITYFDLWGQGTLVTVSS chain 2: DIQMTQSPSSLSASVGDRVTINCQASESISSWLAWYQQKPGKRPKLLIYKASTLASGVPSRFSGSGSGTDYTLTISSLQPEDFATYYCQGYYLDSSVDDNVFGGGTKLTVLGRTRTVAAPSVFIFPPSDEQLKSGTASVVCLLNNFYPREAKVQWKVDNALQSGNSQESVTEQDSKDSTYSLSSTLTLSKADYEKHKVYACEVTHQGLSSPVTKSFNRGECGGGGSGGGGSDIQMTQSPSSLSASVGDRVTITCQSSESVYSNNQLSWYQQKPGQPPKLLIYDASDLASGVPSRFSGSGSGTDFTLTISSLQPEDFATYYCAGGFSSSSDTAFGGGTKLTVLGGGGGSGGGGSGGGGSGGGGSEVQLVESGGGLVQPGGSLRLSCAASGFSLSSNAMGWVRQAPGKGLEYIGIISVGGFTYYASWAKGRFTISRDNSKNTVYLQMNSLRAEDTATYFCARDRHGGDSSGAFYLWGQGTLVTVSS,Kd,[1],0.795 nM
same,Kd,[2],2.69 nM
same,Kd,[3],2.47 nM
same,Kd,[4],1.66 nM
